Laboratory results reported in US20240218065A1 (SHENGHE CHINA BIOPHARMACEUTICAL, published 2024).

B1: DN15-B (bispecific antibody, human IgG1, kappa)
light: DIQMTQSPSTLSASVGDRVTITCSASSSVSSMHWYQQKPGKAPKLLIYSTSNLASGVPSRFSGSGSGTEYTLTISSLQPDDFATYYCHHWTSYMYTFGGGTKVEIKRTVAAPSVFIFPPSDEQLKSGTASVVCLLNNFYPREAKVQWKVDNALQSGNSQESVTEQDSKDSTYSLSSTLTLSKADYEKHKVYACEVTHQGLSSPVTKSFNRGEC
heavy 1: not shown
heavy 2: EVQLVESGGGLVQPGGSLRLSCAASGITFSRSVMGWFRQAPGKLRELVAGITSDDNTDYADSVKGRFTISRDNSKNTLYLQMNSLRAEDTAVYYCNILPDSRLGWGQGTLVTVSSGGGGSGGGGSGGGGSQVQLVQSGSELKKPGASVKVSCKASGYIFTDYAIHWVRQAPGQGLEWMGFINTATGEPTYADDFKGRFVFSLDTSVSTAYLQISSLKAEDTAVYFCTSGVHWGQGTLVTVSSASTKGPSVFPLAPSSKSTSGGTAALGCLVKDYFPEPVTVSWNSGALTSGVHTFPAVLQSSGLYSLSSVVTVPSSSLGTQTYICNVNHKPSNTKVDKKVEPKSCDKTHTCPPCPGGGGSGGGGSPALLLLLLLRPPATRGITCPPPMSVEHADIWVKSYSLYSRERYICNSGFKRKAGTSSLTECVLNKATNVAHWTTPSLKCIRDPALVHQRPAPPSTVTTAGVTPQPESLSPSGKEGGGGSGGGGSAPELLGGPSVFLFPPKPKDTLMISRTPEVTCVVVDVSHEDPEVKFNWYVDGVEVHNAKTKPREEQYNSTYRVVSVLTVLHQDWLNGKEYKCKVSNKALPAPIEKTISKAKGQPREPQVYTLPPSRDELTKNQVSLTCLVKGFYPSDIAVEWESNGQPENNYKTTPPVLDSDGSFFLASKLTVDKSRWQQGNVFSCSVMHEALHNHYTQKSLSLSPGK
notes: Trifunctional antibody against CD24 and NKP30 with IL-15 and IL-15Rα sushi between CH1 and CH2; also called constructed antibody DN15-B; multifunctional antibody
B2: DN15-D (bispecific antibody, human IgG1, kappa)
light: B1 light
heavy 1: not shown
heavy 2: QVQLVQSGSELKKPGASVKVSCKASGYIFTDYAIHWVRQAPGQGLEWMGFINTATGEPTYADDFKGRFVFSLDTSVSTAYLQISSLKAEDTAVYFCTSGVHWGQGTLVTVSSASTKGPSVFPLAPSSKSTSGGTAALGCLVKDYFPEPVTVSWNSGALTSGVHTFPAVLQSSGLYSLSSVVTVPSSSLGTQTYICNVNHKPSNTKVDKKVEPKSCDKTHTCPPCPGGGGSGGGGSPALLLLLLLRPPATRGITCPPPMSVEHADIWVKSYSLYSRERYICNSGFKRKAGTSSLTECVLNKATNVAHWTTPSLKCIRDPALVHQRPAPPSTVTTAGVTPQPESLSPSGKEGGGGSGGGGSAPELLGGPSVFLFPPKPKDTLMISRTPEVTCVVVDVSHEDPEVKFNWYVDGVEVHNAKTKPREEQYNSTYRVVSVLTVLHQDWLNGKEYKCKVSNKALPAPIEKTISKAKGQPREPQVYTLPPSRDELTKNQVSLTCLVKGFYPSDIAVEWESNGQPENNYKTTPPVLDSDGSFFLASKLTVDKSRWQQGNVFSCSVMHEALHNHYTQKSLSLSPGKGGGGSGGGGSGGGGSGGGGSEVQLVESGGGLVQPGGSLRLSCAASGITFSRSVMGWFRQAPGKLRELVAGITSDDNTDYADSVKGRFTISRDNSKNTLYLQMNSLRAEDTAVYYCNILPDSRLGWGQGTLVTVSS
notes: Trifunctional antibody against CD24 and NKP30 with IL-15 and IL-15Rα sushi between CH1 and CH2; also called constructed antibody DN15-D; multifunctional antibody
B3: DN15-A (bispecific antibody, human IgG1, kappa)
light: EVQLVESGGGLVQPGGSLRLSCAASGITFSRSVMGWFRQAPGKLRELVAGITSDDNTDYADSVKGRFTISRDNSKNTLYLQMNSLRAEDTAVYYCNILPDSRLGWGQGTLVTVSSGGGGSGGGGSGGGGSDIQMTQSPSTLSASVGDRVTITCSASSSVSSMHWYQQKPGKAPKLLIYSTSNLASGVPSRFSGSGSGTEYTLTISSLQPDDFATYYCHHWTSYMYTFGGGTKVEIKRTVAAPSVFIFPPSDEQLKSGTASVVCLLNNFYPREAKVQWKVDNALQSGNSQESVTEQDSKDSTYSLSSTLTLSKADYEKHKVYACEVTHQGLSSPVTKSFNRGEC
heavy 1: not shown
heavy 2: QVQLVQSGSELKKPGASVKVSCKASGYIFTDYAIHWVRQAPGQGLEWMGFINTATGEPTYADDFKGRFVFSLDTSVSTAYLQISSLKAEDTAVYFCTSGVHWGQGTLVTVSSASTKGPSVFPLAPSSKSTSGGTAALGCLVKDYFPEPVTVSWNSGALTSGVHTFPAVLQSSGLYSLSSVVTVPSSSLGTQTYICNVNHKPSNTKVDKKVEPKSCDKTHTCPPCPGGGGSGGGGSPALLLLLLLRPPATRGITCPPPMSVEHADIWVKSYSLYSRERYICNSGFKRKAGTSSLTECVLNKATNVAHWTTPSLKCIRDPALVHQRPAPPSTVTTAGVTPQPESLSPSGKEGGGGSGGGGSAPELLGGPSVFLFPPKPKDTLMISRTPEVTCVVVDVSHEDPEVKFNWYVDGVEVHNAKTKPREEQYNSTYRVVSVLTVLHQDWLNGKEYKCKVSNKALPAPIEKTISKAKGQPREPQVYTLPPSRDELTKNQVSLTCLVKGFYPSDIAVEWESNGQPENNYKTTPPVLDSDGSFFLASKLTVDKSRWQQGNVFSCSVMHEALHNHYTQKSLSLSPGK
notes: Trifunctional antibody against CD24 and NKP30 with IL-15 and IL-15Rα sushi between CH1 and CH2; also called constructed antibody DN15-A; multifunctional antibody

Key:
[1] = target: T1, Human-NKP30-His (Kactus, cat: NKP-HM430) (human, UniProt O14931 19-138, limits assumed); test: ELISA: Human-NKP30-His coated at 0.2 µg/mL, antibody titrated 3-fold from 10 µg/mL (7 points), HRP goat anti-human IgG-Fc, OD450-OD570
T1 construct: also called NKP30 protein; NKP30-his protein; not shown: His tag
T1 sequence (looked up): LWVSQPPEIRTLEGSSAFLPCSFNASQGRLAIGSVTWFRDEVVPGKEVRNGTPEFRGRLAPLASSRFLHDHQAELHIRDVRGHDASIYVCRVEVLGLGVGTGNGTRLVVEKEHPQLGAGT
Experimental: Human-NKP30-His (Kactus, cat: NKP-HM430) was diluted to 0.2 μg/mL with PBS buffer at pH 7.4, added into the 96-well ELISA plate at 100 μL per well, coated overnight at 4° C., and blocked with 1% BSA blocking solution for 1 hour. The plate was washed 3 times with PBST, and the constructed expressing antibody was diluted to 10 μg/mL with 0.5% BSA sample diluent as the starting concentration, and then diluted by 3-fold gradient (7 gradients in total). A negative control (blank well and IgG1 isotype control) and a positive control were set, and the positive control was the NKP30 humanized antibody (sequence shown in SEQ ID No. 28), and incubated at 37° C. for 1 h at 100 μL per well. The plate was washed 3 times with PBST, and then HRP-labelled goat anti-human IgG-Fc was diluted with the sample diluent at 1:20000. 100 μL was added into each well, and incubated at room temperature for 1 hour. The plate was washed 4 times with PBST, and 100 μL of TMB substrate was added into each well, and incubated at room temperature without light for 10 minutes. 100 μL of 1 M HCl solution was added into each well to terminate the color development reaction. The absorbance value of each well in the 96-well plate was determined by selecting the wavelength of 450 nm and the reference wavelength of 570 nm on a multifunctional enzyme marker, and the absorbance value (OD)=OD₄₅₀ₙₘ−OD₅₇₀ₙₘ. The logarithm of the concentration of the constructed antibody was taken as the abscissa, and the measured absorbance value of each well was taken as the ordinate, and the Sigmoidaldose-response (Variable Slope) method (GraphPad Prism software, GraphPad Software, San Diego, California) was selected for nonlinear regression to obtain the binding curve of the target antibody to NKP30.

[2] = target: T2, huCD24-humanFC (Acro, cat: CD4-H5254) (human, UniProt P25063 27-59); test: Bridging ELISA: huCD24-humanFC coated at 0.3 µg/mL, antibody titrated 3-fold from 20 µg/mL, then NKP30-his at 0.3 µg/mL, HRP anti-His antibody, OD450-OD570
T2 construct: also called CD24 protein; not shown: human Fc
T2 chain (looked up): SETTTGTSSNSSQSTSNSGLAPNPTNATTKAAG
Experimental: The huCD24-humanFC (Acro, cat: CD4-H5254) was diluted to 0.3 μg/mL with PBS buffer at pH 7.4, added into the 96-well ELISA plate at 100 μL per well, coated overnight at 4° C., and blocked with 1% BSA blocking solution for 1 hour. The plate was washed 3 times with PBST, and the purified antibody was diluted to 20 μg/mL with 0.5% BSA sample diluent as the starting concentration, and then diluted by 3-fold gradient (11 gradients in total). An irrelevant antibody was set as the negative control and incubated at 37° C. for 1 h at 50 μL per well. The plate was washed 3 times with PBST, and the NKP30-his protein was diluted to 0.3 μg/mL. 100 μL was added into each well, and incubated at room temperature for 1 h. The plate was washed 3 times with PBST, and then HRP-labelled his antibody was diluted with the sample diluent at 1:5000. 100 μL was added into each well, and incubated at room temperature for 1 h. The plate was washed 4 times with PBST, 100 μL of TMB substrate was added into each well, and incubated at room temperature without light for 10 min. 100 μL of 1 M HCl solution was added into each well to terminate the color development reaction. The absorbance value of each well in the 96-well plate was determined by selecting the wavelength of 450 nm and the reference wavelength of 570 nm on a multifunctional enzyme marker, and the absorbance value (OD)=OD₄₅₀ₙₘ−OD₅₇₀ₙₘ. The logarithm of antibody concentration was taken as the abscissa, and the measured absorbance value of each well was taken as the ordinate, and the Sigmoidaldose-response (Variable Slope) method (GraphPad Prism software, GraphPad Software, San Diego, California) was selected for nonlinear regression to obtain the binding curve of the target antibody to CD24 and NKP30 proteins at both ends.

Binder	binding result [1]	EC50 (read off the curve) [2] [µg/mL]
B1	binds	~0.1
B2	binds	~0.2
B3	binds	~0.08
